This test addresses acetylcholine receptor. Kind of test: SPR, AchR immobilised on CM5 chip, peptide at 10 uM.

On to RFMKK [5mer-855], for which the Binding affinity (RU) came out at 18 RU.

RMMER [5mer-865] had a Binding affinity (RU) of 21 RU.

RINWR [5mer-866] gave a Binding affinity (RU) of 11 RU.

For KCWVR [5mer-1154], the Binding affinity (RU) is 12 RU.

KKSKR [5mer-1163] showed a Binding affinity (RU) of 12 RU.

Turning to KTSHR [5mer-1157], the Binding affinity (RU) was 21 RU.

As for KIKKK [5mer-1162], the Binding affinity (RU) worked out at 15 RU.

The molecule KKNAK [5mer-862] displayed a Binding affinity (RU) of 19 RU.

In turn, KETWR [5mer-1160] came in with a Binding affinity (RU) of 14 RU.

In turn, RYDMK [5mer-1155] had a Binding affinity (RU) of 25 RU.

Regarding REANR [5mer-863], the Binding affinity (RU) turned out to be 16 RU.

The molecule RDAPR [5mer-1153] gave a Binding affinity (RU) of 27 RU.

As for KYNPR [5mer-1158], the Binding affinity (RU) is 23 RU.

Regarding KKMNK [5mer-1156], the Binding affinity (RU) was 13 RU.

In the case of KHNAR [5mer-859], the Binding affinity (RU) was 26 RU.

KDSWK [5mer-867] had a Binding affinity (RU) of 14 RU.

In turn, KMENR [5mer-857] registered a Binding affinity (RU) of 23 RU.

Consider KTHEK [5mer-1166], for which the Binding affinity (RU) stood at 32 RU.

As for KKWKK [5mer-1159], the Binding affinity (RU) was 17 RU.

For KPPDR [5mer-856], the Binding affinity (RU) was found to be 23 RU.

RNMNR [5mer-1165] displayed a Binding affinity (RU) of 21 RU.

As to RIMGR [5mer-858], the Binding affinity (RU) came to 33 RU.

As for RNTER [5mer-854], the Binding affinity (RU) is 21 RU.

The molecule RFPWR [5mer-1164] showed a Binding affinity (RU) of 33 RU.

Regarding KCHDR [5mer-1161], the Binding affinity (RU) amounted to 21 RU.

Molecule RCHAK [5mer-860] showed a Binding affinity (RU) of 31 RU.

In turn, KTKIR [5mer-861] had a Binding affinity (RU) of 20 RU.

The molecule KYHPR [5mer-864] registered a Binding affinity (RU) of 25 RU.

For the origin of these results see US20250011363A1, “OPTIMIZED SHORTENED PEPTIDE THAT BINDS TO ACETYLCHOLINE RECEPTOR, AND USE THEREOF” (SKINMED CO., LTD., priority 2021, published 2025).
